The values that follow come from patent US20120141538A1 (UNIVERSITE PIERRE ET MARIE CURIE PARIS VI, published 2012).

The target in experiment [1] is T1, human CX3CR1 receptor (human, UniProt P49238 1-355).
T1 construct: Expressed on stably transfected HEK or CHO cells, or endogenous on human PBMC (CD8+ T cells, NK cells); also called HEK-CX3CR1 cells; CHO-CX3CR1 cells
T1 sequence: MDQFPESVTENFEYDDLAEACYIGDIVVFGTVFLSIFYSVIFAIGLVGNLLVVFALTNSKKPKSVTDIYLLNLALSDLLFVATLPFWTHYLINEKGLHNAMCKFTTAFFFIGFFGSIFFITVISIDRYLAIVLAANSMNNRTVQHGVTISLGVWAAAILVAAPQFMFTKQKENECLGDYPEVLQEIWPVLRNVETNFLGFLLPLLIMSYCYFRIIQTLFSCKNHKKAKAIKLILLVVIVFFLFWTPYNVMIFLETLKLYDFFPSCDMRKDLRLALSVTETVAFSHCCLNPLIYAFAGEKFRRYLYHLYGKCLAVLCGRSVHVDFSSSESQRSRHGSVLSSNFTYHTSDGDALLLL
Put plainly: competitive radioligand binding, HEK-CX3CR1 cells, [125I]-CX3CL1 tracer. How it is done:
(§1) Assays were performed as previously described by Moatti et al. (2001, Blood 97, 1925-8). Competitive binding to HEK-CX3CR1 and CHO-CX3CR1 cells was performed with 50 pM [¹²⁵I]-CX3CL1 (Amersham General Electric, Saclay, France) plus variable amounts of unlabeled ligand. Each concentration was assayed in duplicate. After 2 h at 37° C., cells were washed and radioactivity in the cell pellet was quantified with a gamma counter (LKB Wallac, Saint Quentin en Yvelines, France).
CX3CL1 in a competition binding, with HEK-CX3CR1 cells and [¹²⁵I]-CX3CL1 as a tracer. The F1 analogue interacted with CX3CR1, although with a lower affinity than CX3CL1. […] A similar difference in affinity was apparent when F1 and CX3CL1 were tested on CHO-CX3CR1 cells, and when the affinity of CX3CL1-Ig was compared to that of F1-Ig.

The target of experiment [2] is T1, human CX3CR1 receptor. As to the kind of experiment: competitive radioligand binding, CX3CR1-expressing HEK cells, 125I-FKN tracer. How it is done:
as §1
(§2) Assays for determining the competitive radioligand binding of F2 and of F2-Ig to CX3CR1 were carried out as described in Example 1.8.

A further experiment deals with T2, CCR5 (on HEK-CCR5 cells) (UniProt P51681 1-352, limits assumed).
T2 construct: whole, on cells; also called CCR5-expressing cells
T2 sequence (P51681 whole entry): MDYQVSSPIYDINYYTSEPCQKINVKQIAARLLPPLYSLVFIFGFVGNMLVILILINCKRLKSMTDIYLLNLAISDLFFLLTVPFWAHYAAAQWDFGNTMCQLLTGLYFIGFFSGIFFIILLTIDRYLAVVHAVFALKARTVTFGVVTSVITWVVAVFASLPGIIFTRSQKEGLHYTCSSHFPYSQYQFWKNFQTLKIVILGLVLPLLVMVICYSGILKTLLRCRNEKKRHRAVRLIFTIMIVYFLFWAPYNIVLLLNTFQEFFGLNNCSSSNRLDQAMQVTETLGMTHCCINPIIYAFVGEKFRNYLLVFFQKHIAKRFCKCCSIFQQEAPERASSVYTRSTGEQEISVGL
As to the kind of experiment: flow cytometry of phage on cells. A general note: A flow cytometer gives signals particle by particle.

Experiment [3] has as its target T1, human CX3CR1 receptor. As to the kind of experiment: competitive radioligand binding, CX3CR1-expressing CHO cells, 125I-FKN tracer. How it is done:
as §1, §2

Experiment [4] addresses T1, human CX3CR1 receptor. Put plainly: flow cytometry of phage on cells.

B1: CX3CL1 (native human soluble chemokine) (ligand)
chain: QHHGVTKCNITCSKMTSKIPVALLIHYQQNQASCGKRAIILETRQHRLFCADPKEQWVKDAMQHLDRQAAALTRNG
notes: The tracer is iodinated CX3CL1 from Amersham; also called fractalkine; FKN
The IC50 is the concentration at which inhibition is half-maximal. Higher therefore signals lower potency. B1: in the experiment with human CX3CR1 receptor [1], the IC50 was 160 pM and the “Log IC50” value was -9.79. The molecule further had an IC50 with human CX3CR1 receptor [2] of 580 pM.

B2: CX3CL1-phage (human CX3CL1 chemokine domain displayed on phage) (other, not shown: large carriers)
chain: QHHGVTKCNITCSKMTSKIPVALLIHYQQNQASCGKRAIILETRQHRLFCADPKEQWVKDAMQHLDRQAAALTRNG
notes: also called phage-chemokine
On to B2, for which, in the experiment with CCR5 (on HEK-CCR5 cells), the binding result was “no binding”.

B3: F2 (CX3CL1 analogue with N-terminal sequence QPQGVS) (ligand)
chain: QPQGVSKCNITCSKMTSKIPVALLIHYQQNQASCGKRAIILETRQHRLFCADPKEQWVKDAMQHLDRQAAALTRNG
notes: Produced by chemical synthesis
Regarding B3, the IC50 with human CX3CR1 receptor [2] is 50 pM.

B4: F2-Ig (F2 fused to a domain of an immunoglobulin) (Fc fusion)
chain: QPQGVSKCNITCSKMTSKIPVALLIHYQQNQASCGKRAIILETRQHRLFCADPKEQWVKDAMQHLDRQAAALTRNGAAAHPRGPTIKPCPPCKCPAPNLEGGPSVFIFPPKIKDVLMISLSPIVTCVVVDVSEDDPDVQISWFVNNVEVHTAQTQTHREDYDSTLRVVSALPIQHQDWMSGKAFACAVNNKDLPAPIGRTISKPKGSVRAPQVYVLPPPEEEMTKKQVTLTCMVTDFMPEDIYVEWTNNGKTELNYKNTEPVLDSDGSYFMYSKLRVEKKNWVERNSYSCSVVHEGLHNHHTTKSFSRPPGK
In the experiment with human CX3CR1 receptor [3], B4 returned an IC50 of 390 pM.

B5: CCL5-expressing phage (other, UniProt P13501 24-91, looked up, not shown: large carriers)
chain: SPYSSDTTPCCFAYIARPLPRAHIKEYFYTSGKCSNPAVVFVTRKNRQVCANPEKKWVREYINSLEMS
notes: Control phage
Take B5: the binding result in the experiment with human CX3CR1 receptor [4] is recorded as “no binding”.

B6: CX3CL1-Ig (CX3CL1 chemokine domain fused to murine Fc) (Fc fusion)
chain: QHHGVTKCNITCSKMTSKIPVALLIHYQQNQASCGKRAIILETRQHRLFCADPKEQWVKDAMQHLDRQAAALTRNGEPRGPTIKPCPPCKCPAPNLEGGPSVFIFPPKIKDVLMISLSPIVTCVVVDVSEDDPDVQISWFVNNVEVHTAQTQTHREDYNSTLRVVSALPIQHQDWMSGKAFACAVNNKDLPAPIERTISKPKGSVRAPQVYVLPPPEEEMTKKQVTLTCMVTDFMPEDIYVEWTNNGKTELNYKNTEPVLDSDGSYFMYSKLRVEKKNWVERNSYSCSVVHEGLHNHHTTKSFSRTPGK
notes: domain: Fcγ2a fragment; also called FKN-Ig
On to B6, for which, in the experiment with human CX3CR1 receptor [3], the IC50 was 1470 pM.

B7: F1 (CX3CL1 analogue, soluble chemokine domain with N-terminal sequence ILDNGVS) (ligand)
chain: ILDNGVSKCNITCSKMTSKIPVALLIHYQQNQASCGKRAIILETRQHRLFCADPKEQWVKDAMQHLDRQAAALTRNG
notes: also called F1 analogue; soluble F1
As for B7, in the experiment with human CX3CR1 receptor [1], the IC50 is 1900 pM and the “Log IC50” value was -8.73.

B8: phage-F1 (phage clone ILDNGVS) (other, not shown: large carriers)
chain: ILDNGVSKCNITCSKMTSKIPVALLIHYQQNQASCGKRAIILETRQHRLFCADPKEQWVKDAMQHLDRQAAALTRNG
Take B8: the binding result in the experiment with CCR5 (on HEK-CCR5 cells) is given as “no binding”.
